Among the targets are MMP9 (human, UniProt P14780 107-707, limits assumed); MMP8 (human, UniProt P22894 101-467, limits assumed); MMP3 (human, UniProt P08254 100-477, limits assumed); MMP13 (human, UniProt P45452 104-471, limits assumed); MMP12 (human, UniProt P39900 106-470, limits assumed); Elastase.
What all share (assay): cell-based or functional assay
The target in another assay is T1, ADAMTS5 (human, UniProt Q9UNA0 262-622, limits assumed).
T1 sequence (looked up): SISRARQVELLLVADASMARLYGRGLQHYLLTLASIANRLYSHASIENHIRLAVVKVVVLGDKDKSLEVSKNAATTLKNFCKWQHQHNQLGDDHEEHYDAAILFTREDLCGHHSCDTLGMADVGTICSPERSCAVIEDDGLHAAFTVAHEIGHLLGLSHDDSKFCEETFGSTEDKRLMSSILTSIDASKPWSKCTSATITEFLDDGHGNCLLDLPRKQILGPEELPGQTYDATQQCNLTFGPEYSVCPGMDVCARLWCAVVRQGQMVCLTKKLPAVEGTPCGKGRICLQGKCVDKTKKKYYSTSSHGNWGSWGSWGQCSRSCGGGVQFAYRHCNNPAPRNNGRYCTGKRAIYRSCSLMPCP

Another assay concerns the target T2, MMP2 (human, UniProt P08253 110-660, limits assumed).
T2 sequence (looked up): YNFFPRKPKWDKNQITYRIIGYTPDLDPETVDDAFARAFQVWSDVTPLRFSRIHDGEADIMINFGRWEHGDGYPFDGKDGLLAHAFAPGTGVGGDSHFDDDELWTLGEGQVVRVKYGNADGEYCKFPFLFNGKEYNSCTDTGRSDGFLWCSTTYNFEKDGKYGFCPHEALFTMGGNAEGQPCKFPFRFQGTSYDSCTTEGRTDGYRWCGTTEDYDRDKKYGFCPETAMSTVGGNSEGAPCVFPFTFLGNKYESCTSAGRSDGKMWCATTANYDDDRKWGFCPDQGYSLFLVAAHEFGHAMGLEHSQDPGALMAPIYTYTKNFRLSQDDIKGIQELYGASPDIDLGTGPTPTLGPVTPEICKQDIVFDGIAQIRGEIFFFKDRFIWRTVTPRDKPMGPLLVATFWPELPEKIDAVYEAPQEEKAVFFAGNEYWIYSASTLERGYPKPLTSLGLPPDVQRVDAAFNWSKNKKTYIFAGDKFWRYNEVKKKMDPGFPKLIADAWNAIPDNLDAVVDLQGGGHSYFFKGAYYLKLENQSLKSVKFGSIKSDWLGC

A further assay has as its target T3, ADAMTS4 (human, UniProt O75173 213-685, limits assumed).
T3 sequence (looked up): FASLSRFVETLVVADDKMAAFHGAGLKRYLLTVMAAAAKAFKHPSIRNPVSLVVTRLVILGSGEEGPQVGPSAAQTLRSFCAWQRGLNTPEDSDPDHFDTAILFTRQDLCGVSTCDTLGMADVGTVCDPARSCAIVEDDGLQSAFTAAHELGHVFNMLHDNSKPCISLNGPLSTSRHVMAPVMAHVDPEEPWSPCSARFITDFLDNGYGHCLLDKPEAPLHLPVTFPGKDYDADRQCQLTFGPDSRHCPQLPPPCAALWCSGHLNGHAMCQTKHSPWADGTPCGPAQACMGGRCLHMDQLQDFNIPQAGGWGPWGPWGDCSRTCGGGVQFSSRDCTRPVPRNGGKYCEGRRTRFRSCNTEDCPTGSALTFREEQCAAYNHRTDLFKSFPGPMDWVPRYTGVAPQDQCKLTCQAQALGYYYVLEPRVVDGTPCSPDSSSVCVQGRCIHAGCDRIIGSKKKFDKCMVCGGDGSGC

For a further assay, the target named is T4, MMP1 (human, UniProt P03956 100-469, limits assumed).
T4 sequence (looked up): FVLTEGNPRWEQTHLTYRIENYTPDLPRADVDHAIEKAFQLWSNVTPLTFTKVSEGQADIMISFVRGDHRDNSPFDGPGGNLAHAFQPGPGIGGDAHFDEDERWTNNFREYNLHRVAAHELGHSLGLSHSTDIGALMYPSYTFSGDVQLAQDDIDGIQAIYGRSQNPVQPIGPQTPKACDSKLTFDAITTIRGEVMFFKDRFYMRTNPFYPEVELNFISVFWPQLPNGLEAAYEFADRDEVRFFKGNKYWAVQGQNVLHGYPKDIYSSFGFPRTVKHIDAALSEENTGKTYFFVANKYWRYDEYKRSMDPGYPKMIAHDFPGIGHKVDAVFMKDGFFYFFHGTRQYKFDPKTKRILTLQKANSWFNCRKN

A further assay concerns the target T5, Cathepsin G (UniProt P08311 21-244).
T5 sequence (looked up): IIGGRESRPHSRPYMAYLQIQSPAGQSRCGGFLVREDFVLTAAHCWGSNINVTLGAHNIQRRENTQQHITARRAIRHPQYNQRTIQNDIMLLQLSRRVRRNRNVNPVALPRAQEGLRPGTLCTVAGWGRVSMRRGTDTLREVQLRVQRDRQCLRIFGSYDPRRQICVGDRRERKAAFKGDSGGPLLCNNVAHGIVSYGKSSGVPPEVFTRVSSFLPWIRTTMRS

Where a chain is given by its changes, count along the chain named. Names may count otherwise.

Sequence of MMP9 (P14780 107-707 limits assumed): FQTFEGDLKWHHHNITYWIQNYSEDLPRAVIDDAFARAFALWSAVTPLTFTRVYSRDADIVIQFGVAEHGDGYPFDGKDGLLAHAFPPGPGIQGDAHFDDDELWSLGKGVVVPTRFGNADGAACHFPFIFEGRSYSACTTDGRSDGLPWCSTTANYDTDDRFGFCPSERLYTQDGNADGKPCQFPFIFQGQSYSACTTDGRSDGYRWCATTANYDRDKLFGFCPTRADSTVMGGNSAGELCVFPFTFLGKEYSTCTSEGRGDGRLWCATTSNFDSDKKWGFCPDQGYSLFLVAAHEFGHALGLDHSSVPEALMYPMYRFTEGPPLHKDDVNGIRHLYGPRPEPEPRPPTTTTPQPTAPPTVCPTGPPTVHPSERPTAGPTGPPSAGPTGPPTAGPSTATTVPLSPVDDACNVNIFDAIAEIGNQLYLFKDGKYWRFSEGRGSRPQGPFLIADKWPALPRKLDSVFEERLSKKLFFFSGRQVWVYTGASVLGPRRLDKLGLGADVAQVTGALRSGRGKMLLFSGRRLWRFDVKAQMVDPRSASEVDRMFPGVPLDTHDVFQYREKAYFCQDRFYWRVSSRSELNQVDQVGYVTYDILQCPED
Sequence of MMP8 (P22894 101-467 limits assumed): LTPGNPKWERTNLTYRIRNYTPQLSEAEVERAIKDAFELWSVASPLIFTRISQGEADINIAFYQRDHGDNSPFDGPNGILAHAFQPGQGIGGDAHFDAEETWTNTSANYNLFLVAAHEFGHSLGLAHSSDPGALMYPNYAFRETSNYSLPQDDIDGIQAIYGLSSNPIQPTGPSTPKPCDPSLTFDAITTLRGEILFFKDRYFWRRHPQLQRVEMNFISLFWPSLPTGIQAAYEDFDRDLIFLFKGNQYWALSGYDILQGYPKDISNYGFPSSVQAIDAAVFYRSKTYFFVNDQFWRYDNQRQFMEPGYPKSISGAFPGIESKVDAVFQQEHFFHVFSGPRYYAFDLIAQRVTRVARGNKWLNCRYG
Sequence of MMP3 (P08254 100-477 limits assumed): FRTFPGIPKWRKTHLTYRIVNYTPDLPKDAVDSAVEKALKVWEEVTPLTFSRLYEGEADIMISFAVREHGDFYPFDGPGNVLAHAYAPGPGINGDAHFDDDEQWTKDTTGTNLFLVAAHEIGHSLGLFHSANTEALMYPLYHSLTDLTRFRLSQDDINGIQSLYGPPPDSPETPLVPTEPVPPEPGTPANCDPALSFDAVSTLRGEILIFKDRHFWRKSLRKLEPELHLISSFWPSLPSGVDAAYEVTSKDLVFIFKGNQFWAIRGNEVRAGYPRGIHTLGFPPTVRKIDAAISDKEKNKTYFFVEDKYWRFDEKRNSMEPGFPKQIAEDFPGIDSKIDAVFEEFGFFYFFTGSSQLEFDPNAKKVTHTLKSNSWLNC
Sequence of MMP12 (P39900 106-470 limits assumed): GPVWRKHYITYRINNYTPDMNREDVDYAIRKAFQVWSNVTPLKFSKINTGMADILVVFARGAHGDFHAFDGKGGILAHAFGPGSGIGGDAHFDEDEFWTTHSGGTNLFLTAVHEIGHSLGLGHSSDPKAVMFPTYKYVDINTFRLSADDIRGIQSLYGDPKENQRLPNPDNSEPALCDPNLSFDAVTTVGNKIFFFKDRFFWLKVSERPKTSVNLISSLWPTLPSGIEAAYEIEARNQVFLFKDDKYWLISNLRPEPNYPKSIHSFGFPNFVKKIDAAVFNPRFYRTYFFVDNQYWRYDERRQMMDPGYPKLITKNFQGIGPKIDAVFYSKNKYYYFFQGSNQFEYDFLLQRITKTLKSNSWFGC

B1: Variant A2M, bait region SEQ ID NO 92 (other)
chain: SVSGKPQYMVLVPSLLHTETTEKGCVLLSYLNETVTVSASLESVRGNRSLFTDLEAENDVLHCVAFAVPKSSSNEEVMFLTVQVKGPTQEFKKRTTVMVKNEDSLVFVQTDKSIYKPGQTVKFRVVSMDENFHPLNELIPLVYIQDPKGNRIAQWQSFQLEGGLKQFSFPLSSEPFQGSYKVVVQKKSGGRTEHPFTVEEFVLPKFEVQVTVPKIITILEEEMNVSVCGLYTYGKPVPGHVTVSICRKYSDASDCHGEDSQAFCEKFSGQLNSHGCFYQQVKTKVFQLKRKEYEMKLHTEAQIQEEGTVVELTGRQSSEITRTITKLSFVKVDSHFRQGIPFFGQVRLVDGKGVPIPNKVIFIRGNEANYYSNATTDEHGLVQFSINTTNVMGTSLTVRVNYKDRSPCYGYQWVSEEHEEAHHTAYLVFSPSKSFVHLEPMSHELPCGHTQTVQAHYILNGGTLLGLKKLSFYYLIMAKGGIVRTGTHGLLVKQEDMKGHFSISIPVKSDIAPVARLLIYAVLPTGDVIGDSAKYDVENCLANKVDLSFSPSQSLPASHAHLRVTAAPQSVCALRAVDQSVLLMKPDAELSASSVYNLLPEKDLTGFPGPLNDQDDEDCINRHNVYINGITYTPVSSTNEKDMYSFLEDMGLKAFTNSKIRKPKMCPQLEQYEMHGPEGLRVGTAQEAGEGFYESDVMGRGHARLVHVEEPHTKLLRKYFPETWIWDLVVVNSAGVAEVGVTVPDTITEWKAGAFCLSEDAGLGISSTASLRAFQPFFVELTMPYSVIRGEAFTLKATVLNYLPKCIRVSVQLEASPAFLAVPVEKEQAPHCICANGRQTVSWAVTPKSLGNVNFTVSAEALESQELCGTEVPSVPEHGRKDTVIKPLLVEPEGLEKETTFNSLLCPSGGEVSEELSLKLPPNVVEESARASVSVLGDILGSAMQNTQNLLQMPYGCGEQNMVLFAPNIYVLDYLNETQQLTPEIKSKAIGYLNTGYQRQLNYKHYDGSYSTFGERYGRNQGNTWLTAFVLKTFAQARAYIFIDEAHITQALIWLSQRQKDNGCFRSSGSLLNNAIKGGVEDEVTLSAYITIALLEIPLTVTHPVVRNALFCLESAWKTAQEGDHGSHVYTKALLAYAFALAGNQDKRKEVLKSLNEEAVKKDNSVHWERPQKPKAPVGHFYEPQAPSAEVEMTSYVLLAYLTAQPAPTSEDLTSATNIVKWITKQQNAQGGFSSTQDTVVALHALSKYGAATFTRTGKAAQVTIQSSGTFSSKFQVDNNNRLLLQQVSLPELPGEYSMKVTGEGCVYLQTSLKYNILPEKEEFPFALGVQTLPQTCDEPKAHTSFQISLSVSYTGSRSASNMAIVDVKMVSGFIPLKPTVKMLERSNHVSRTEVSSNHVLIYLDKVSNQTLSLFFTVLQDVPVRDLKPAIVKVYDYYETDEFAIAEYNAPCSKDLGNADYKDDDDKGASHHHHHH
With B1, the “Protease Inhibition (% of WT)” value with ADAMTS5 was 250 % of WT; with MMP9, 50 % of WT; with MMP8, 160 % of WT; with MMP2 it was 110 % of WT; with MMP3 it was 80 % of WT; in the assay with MMP13 it was 90 % of WT. Moreover, the “Protease Inhibition (% of WT)” value with ADAMTS4 is 210 % of WT; with MMP1, 170 % of WT.

B2: Variant A2M, bait region SEQ ID NO 100 (other)
chain: B1 chain with T684G, A685E, Q686P, A688G, G689A, E690K
As to B2, the “Protease Inhibition (% of WT)” value was 400 % of WT with ADAMTS5; 50 % of WT with MMP9; 20 % of WT with MMP8; 110 % of WT with MMP2; 50 % of WT with MMP3; 210 % of WT with MMP13. Also, the “Protease Inhibition (% of WT)” value with ADAMTS4 is 50 % of WT; in the assay with MMP1, 40 % of WT.

B3: Variant A2M, bait region SEQ ID NO 125 (other)
chain: SVSGKPQYMVLVPSLLHTETTEKGCVLLSYLNETVTVSASLESVRGNRSLFTDLEAENDVLHCVAFAVPKSSSNEEVMFLTVQVKGPTQEFKKRTTVMVKNEDSLVFVQTDKSIYKPGQTVKFRVVSMDENFHPLNELIPLVYIQDPKGNRIAQWQSFQLEGGLKQFSFPLSSEPFQGSYKVVVQKKSGGRTEHPFTVEEFVLPKFEVQVTVPKIITILEEEMNVSVCGLYTYGKPVPGHVTVSICRKYSDASDCHGEDSQAFCEKFSGQLNSHGCFYQQVKTKVFQLKRKEYEMKLHTEAQIQEEGTVVELTGRQSSEITRTITKLSFVKVDSHFRQGIPFFGQVRLVDGKGVPIPNKVIFIRGNEANYYSNATTDEHGLVQFSINTTNVMGTSLTVRVNYKDRSPCYGYQWVSEEHEEAHHTAYLVFSPSKSFVHLEPMSHELPCGHTQTVQAHYILNGGTLLGLKKLSFYYLIMAKGGIVRTGTHGLLVKQEDMKGHFSISIPVKSDIAPVARLLIYAVLPTGDVIGDSAKYDVENCLANKVDLSFSPSQSLPASHAHLRVTAAPQSVCALRAVDQSVLLMKPDAELSASSVYNLLPEKDLTGFPGPLNDQDDEDCINRHNVYINGITYTPVSSTNEKDMYSFLEDMGLKAFTNSKIRKPKMCPQLEQYEMHGPSELEGRGSIPENFFGVEAIPMSIPTSEDLVVQIVEEPHTKLRKYFPETWIWDLVVVNSAGVAEVGVTVPDTITEWKAGAFCLSEDAGLGISSTASLRAFQPFFVELTMPYSVIRGEAFTLKATVLNYLPKCIRVSVQLEASPAFLAVPVEKEQAPHCICANGRQTVSWAVTPKSLGNVNFTVSAEALESQELCGTEVPSVPEHGRKDTVIKPLLVEPEGLEKETTFNSLLCPSGGEVSEELSLKLPPNVVEESARASVSVLGDILGSAMQNTQNLLQMPYGCGEQNMVLFAPNIYVLDYLNETQQLTPEIKSKAIGYLNTGYQRQLNYKHYDGSYSTFGERYGRNQGNTWLTAFVLKTFAQARAYIFIDEAHITQALIWLSQRQKDNGCFRSSGSLLNNAIKGGVEDEVTLSAYITIALLEIPLTVTHPVVRNALFCLESAWKTAQEGDHGSHVYTKALLAYAFALAGNQDKRKEVLKSLNEEAVKKDNSVHWERPQKPKAPVGHFYEPQAPSAEVEMTSYVLLAYLTAQPAPTSEDLTSATNIVKWITKQQNAQGGFSSTQDTVVALHALSKYGAATFTRTGKAAQVTIQSSGTFSSKFQVDNNNRLLLQQVSLPELPGEYSMKVTGEGCVYLQTSLKYNILPEKEEFPFALGVQTLPQTCDEPKAHTSFQISLSVSYTGSRSASNMAIVDVKMVSGFIPLKPTVKMLERSNHVSRTEVSSNHVLIYLDKVSNQTLSLFFTVLQDVPVRDLKPAIVKVYDYYETDEFAIAEYNAPCSKDLGNADYKDDDDKGASHHHHHH
With B3, the “Protease Inhibition (% of WT)” value in the assay with MMP9 is 300 % of WT; in the assay with MMP8 it was 300 % of WT; in the assay with MMP12, 300 % of WT; in the assay with MMP2 it was 20 % of WT; with MMP1 it was 200 % of WT; with Elastase it was 75 % of WT. The “Protease Inhibition (% of WT)” value with Cathepsin G was 250 % of WT.

For the origin of these results see patent publication US20230250154A1 (CYTONICS, published 2023).
